Earlier results, collected in publication PMC5394478.

Experiments:
[1] = biological target: IFNLR1 Box1 (Homo sapiens) (UniProt Q8IU57); experiment: Biolayer Interferometry
[2] = biological target: IFNLR1 Box1-Box2 (Homo sapiens) (UniProt Q8IU57); experiment: Biolayer Interferometry

For JAK1 FERM-SH2 (from UniProt P23458), the Kd [1] is listed as 1200 nM and the Kd [2] is listed as 70 nM.
